In series [1] the test system is T1, EntPNP (PNP from Enterobacter).
T1 construct: commercial preparation (Sigma-Aldrich); acts on 6-oxopurine nucleosides only
Kind of series: coupled xanthine oxidase assay, […] nm, Michaelis-Menten fit. It counts as biochemical, Enterobacter sp. The note with it: 50 mM KH2PO4, pH 7.5, 25 °C; phosphorolysis.

Series [2] relates to Nc1ncnc2c1ncn2[C@@H]1O[C@H](CO)[C@@H](O)[C@H]1O. Kind of series: purified protein. Conditions: 50 mM KH2PO4, pH 7.5, 25 °C, phosphorolysis.
Series [3] has as its system T1, EntPNP (PNP from Enterobacter). Description: HPLC phosphorolysis assay, Michaelis-Menten fit. Type of series: biochemical, Enterobacter sp. The note with it: 50 mM KH2PO4, pH 7.5, 25 °C, tested up to 4 mM, no plateau. The text has this:
HPLC phosphorolysis assay, Michaelis-Menten fit on EntPNP (PNP from Enterobacter)

Substrate in series [4]: O=c1[nH]cnc2c1ncn2[C@@H]1O[C@H](CO)[C@@H](O)[C@@H]1O
Description: HPLC phosphorolysis assay, Michaelis-Menten fit. Type of series: biochemical, Escherichia coli. The note with it: 50 mM KH2PO4, pH 7.5, 25 °C, tested up to 4 mM, no plateau. From the text:
HPLC phosphorolysis assay, Michaelis-Menten fit on EcPNP

Substrate in series [5]: OC[C@H]1O[C@@H](n2cnc3c(O)ncnc32)[C@H](O)[C@@H]1O
Description: purified protein. Type of series: biochemical, Escherichia coli. Conditions: 50 mM KH2PO4, pH 7.5, 25 °C, phosphorolysis.

On to `O=c1[nH]cnc2c1ncn2[C@@H]1O[C@H](CO)[C@@H](O)[C@H]1O` [inosine], for which the Km – broadly, the concentration of substrate that gives half-maximal velocity – in series [1] stood at 107 ± 21 µM.
As for EcPNP (Escherichia coli K-12), in series [2], the Km is 21 ± 5 µM and the kcat (in general, the maximal rate divided by the concentration of active sites) was 137.7 s⁻¹.
For `O=c1[nH]cnc2c1ncn2[C@@H]1O[C@H](CO)[C@@H](O)[C@@H]1O` [9-(β-D-arabinofuranosyl)hypoxanthine], the Km in series [3] was 2900 ± 831 µM.

B1: EcPNP (Escherichia coli K-12) (protein)
chain: ATPHINAEMGDFADVVLMPGDPLRAKYIAETFLEDAREVNNVRGMLGFTGTYKGRKISVMGHGMGIPSCSIYTKELITDFGVKKIIRVGSCGAVLPHVKLRDVVIGMGACTDSKVNRIRFKDHDFAAIADFDMVRNAVDAAKALGIDARVGNLFSADLFYSPDGEMFDVMEKYGILGVEMEAAGIYGVAAEFGAKALTICTVSDHIRTHEQTTAAERQTTFNDMIKIALESVLLGDKE
notes: recombinant from plasmid pER-EcPNP, host E. coli ER2566
Turning to B1, in series [4], the Michaelis-Menten constant (Km) amounted to 1810 ± 371 µM and the catalytic constant (kcat) came out at 0.709 s⁻¹. Moreover, in series [5], the Km came to 76 ± 21 µM and the kcat was 29.2 s⁻¹.

Values taken from PMC11430614, “Bacterial Purine Nucleoside Phosphorylases from Mesophilic and Thermophilic Sources: Characterization of Their Interaction with Natural Nucleosides and Modified Arabinofuranoside Analogues” (Biomolecules, 2024).
